Laboratory results: patent US7563582B2, “Process for screening chemical compounds for modulating the interaction of an EVH1 domain and a process for detecting said interaction” (sanofi-aventis Deutschland GmbH, priority 2000, dated 2009)

Experiments:
VASP/zyxin interaction = biological target: T1, VASP/zyxin interaction (Homo sapiens, UniProt P50552); experiment: VASP-zyxin solid-phase (DELFIA) assay, competition with peptides; assay type: binding; conditions: competing zyxin peptides, FIG. 2
T1 construct: made in house; host or cells: VASP: insect cells (baculovirus); GST-zyxin(1-142): E. coli, given only for the homogeneous assay
T1 sequence (P50552 whole entry): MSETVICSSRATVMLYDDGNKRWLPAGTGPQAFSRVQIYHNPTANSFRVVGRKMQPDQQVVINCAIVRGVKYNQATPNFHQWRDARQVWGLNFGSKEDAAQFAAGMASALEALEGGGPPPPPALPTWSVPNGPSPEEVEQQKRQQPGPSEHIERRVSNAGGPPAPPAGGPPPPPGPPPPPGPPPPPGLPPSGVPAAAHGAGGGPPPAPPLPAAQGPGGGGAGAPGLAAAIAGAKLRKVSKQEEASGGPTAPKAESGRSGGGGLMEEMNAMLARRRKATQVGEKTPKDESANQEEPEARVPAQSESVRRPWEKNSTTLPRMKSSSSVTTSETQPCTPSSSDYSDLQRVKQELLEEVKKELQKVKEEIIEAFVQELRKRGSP
Description: In the solid-phase assay, a binding partner (VASP or zyxin) was immobilized on the surface of a microtiter plate (MTP) (=coating). The unsaturated binding sites on the surface of the plastic were blocked, and the surface was then incubated with the respective other binding partners. After the incubation, excess unattached protein was removed in a washing step. Using suitable antibodies, it was now possible to detect and quantify the specifically bound protein. Here, it was possible to improve the signal-noise (S/N) ratio considerably by using lanthanide chelates as fluorescent labels for the antibodies and the measurement of the time-resolved fluorescence.
For the solid-phase assay, the best coating and incubation conditions were characterized. […] For detecting VASP specifically bound to the immobilized zyxin, it was possible to use monoclonal antibodies against VASP which can be detected using lanthanide-labeled antibodies against mouse IgGs (Wallac: DELFIA anti-mouse-Eu(N1)).
The current assay protocol comprised 5 incubation steps and 3 washing steps: • 1. Incubation of the empty MTPs with GST-zyxin(1-142) (coating); • 2. Blocking with BSA (bovine serum albumin); • 3. Washing with PBS (wash buffer); • 4. Incubation with VASP (ligand) (with and without test substances); • 5. Washing with PBS; • 6. Incubation with detection mix: α-VASP (monoclonal anti-VASP antibody)+α-mouse-Eu (europium-labeled anti-mouse antibodies from Wallac); • 7. Washing with DELFIA wash solution; and • 8. Release of the bound lanthanide complex and fluorimetric measurement.
The optimum conditions for coating (GST-zyxin(1-142)) and ligand incubation (VASP) were determined by titrating the reagents. […] The volume per well used depended on the selected MTP format (50 μl or 100 μl for 96-well plates, 20 μl for 384-well plates).
Thus far, there are no known non-peptidergic inhibitors of the VASP/zyxin interaction To simulate the action of potential inhibitors, inhibition experiments were carried out using competing peptides which contained the VASP binding motif of zyxin (FPPPP (SEQ. ID. NO. 1)). […]

VASP/ActA interaction = VASP/ActA interaction (Homo sapiens, UniProt P50552); conditions: peptides with mutations in the FPPPP motif; cited from earlier work
Sequence of VASP/ActA interaction (P50552 whole entry, species assumed): as the sequence (P50552 whole entry) above

Substance	apparent inhibition constants of the peptides (rank order of inhibition) (VASP/zyxin interaction)	inhibition of the VASP/ActA interaction (relative to wild type sequence FPPPP) (VASP/ActA interaction)
APPPP: competing zyxin peptide containing the mutated VASP binding motif APPPP	WPPPP (SEQ. ID. NO. 2)>FPPPP (SEQ. ID. NO. 1)>APPPP (SEQ. ID. NO. 3)	considerably worse inhibition
FPPPP: competing peptide containing the wild type VASP binding motif of zyxin, FPPPP	WPPPP (SEQ. ID. NO. 2)>FPPPP (SEQ. ID. NO. 1)>APPPP (SEQ. ID. NO. 3)	WPPPP (SEQ. ID. NO. 2)>FPPPP (SEQ. ID. NO. 1)>APPPP (SEQ. ID. NO. 3)
WPPPP: competing zyxin peptide containing the mutated VASP binding motif WPPPP	WPPPP (SEQ. ID. NO. 2)>FPPPP (SEQ. ID. NO. 1)>APPPP (SEQ. ID. NO. 3)	even better inhibition
